B1: NEB RI, murine: murine RNase Inhibitor (M0314; New England BioLabs) (protein, UniProt Q91VI7 1-456, looked up)
Ribonuclease inhibitor: MSLDIQCEQLSDARWTELLPLIQQYEVVRLDDCGLTEVRCKDISSAVQANPALTELSLRTNELGDGGVGLVLQGLQNPTCKIQKLSLQNCGLTEAGCGILPGMLRSLSTLRELHLNDNPMGDAGLKLLCEGLQDPQCRLEKLQLEYCNLTATSCEPLASVLRVKADFKELVLSNNDLHEPGVRILCQGLKDSACQLESLKLENCGITAANCKDLCDVVASKASLQELDLSSNKLGNAGIAALCPGLLLPSCKLRTLWLWECDITAEGCKDLCRVLRAKQSLKELSLASNELKDEGARLLCESLLEPGCQLESLWIKTCSLTAASCPYFCSVLTKSRSLLELQMSSNPLGDEGVQELCKALSQPDTVLRELWLGDCDVTNSGCSSLANVLLANRSLRELDLSNNCMGGPGVLQLLESLKQPSCTLQQLVLYDIYWTNEVEEQLRALEEERPSLRIIS
B2: Proteinase K: listed under Protein RNase Inhibitors (protein, UniProt P06873 106-384, looked up)
Proteinase K: AAQTNAPWGLARISSTSPGTSTYYYDESAGQGSCVYVIDTGIEASHPEFEGRAQMVKTYYYSSRDGNGHGTHCAGTVGSRTYGVAKKTQLFGVKVLDDNGSGQYSTIIAGMDFVASDKNNRNCPKGVVASLSLGGGYSSSVNSAAARLQSSGVMVAVAAGNNNADARNYSPASEPSVCTVGASDRYDRRSSFSNYGSVLDIFGPGTSILSTWIGGSTRSISGTSMATPHVAGLAAYLMTLGKTTAASACRYIADTANKGDLSNIPFGTVNLLAYNNYQA

How the values were obtained:
[1] = test system: RT-RPA reactions; experiment: RT-RPA interference (compatibility) testing of lysis and RNase inhibitor reagents, agarose gel; format: biochemical; set-up: key: Pass (green) indicates that reagents did not interfere with RT-RPA; Partial Pass: Partial pass (yellow) indicates that reagents had partial interference in RT-RPA; Fail (red) indicates reagents completely interfered with RT-RPA reactions; conditions: 4 U/μl final in RT-RPA reaction
Description: FIG. 28. Reagent interference testing in RT-RPA. Lysis and RNase inhibitor reagents tested in RT-RPA using cDNA and RNA templates. RT-RPA reactions were prepared with varying concentrations of reagents, as labeled above (final concentrations in a 20 μl RT-RPA reaction are reported). Amplification products were run on a 2% agarose gel and band intensities were compared to control (No added reagent) reactions. Reactions labeled in red contain no reverse transcriptase. The expected size of the CXCL8 amplicon is indicated to the left of the gel. GuHCI=Guanidine hydrochloride, Triton=Triton X-100.
Reagents under consideration for the device were tested for compatibility with RT-RPA at the concentrations expected to be required for lysis. To test for interference, lysis or RNase inhibitor reagents were spiked into RT-RPA reactions with purified cell line RNA or cDNA as a template. Reactions were analyzed by agarose gel for the presence or absence of amplified products. […]

[2] = test system: RNase activity in saliva; experiment: RNase Alert Assay on saliva samples; format: biochemical, human
Description: FIGS. 3A-D. Optimizing and measuring RNase inhibition by murine RNase Inhibitor (mRI). (A) Diagram of the RNase Alert assay. A quenched fluorescent ssRNA probe reports RNase activity when the quencher and fluorophore are physically separated by RNase degradation. Data is collected immediately after saliva is added to the assay and the RNase activity is calculated from a linear slope of the first 90 second of measurements. (B) RNase activity in five individual saliva samples with or without addition of 4 U/μl mRI. (C) RT-qPCR data for a panel of 12 biomarkers indicating the relative abundance of each biomarker at the indicated time after lysis. Each timepoint is from a pooled saliva sample run through a separate device. Delta Ct values were normalized to the 0 second timepoint. Horizontal bars are mean+/−standard deviation. (D) RNase activity in four saliva samples before and after rehydrating an amplification pad containing 4 U/μl of lyophilized mRI. Saliva in rehydrated pads went through a 20-minute RPA incubation at 39° C. prior to addition to the RNase Alert assay showing that RNase inhibition is long-lived. Ct=Cycle Threshold. […]
To confirm that lyophilized mRI in the amplification pad can rehydrate and inhibit saliva RNases, four amplification pads were rehydrated with saliva and the contents of the rehydrated pads were measured in the RNase Alert Assay (FIG. 3D).

[3] = test system: saliva RNases; experiment: RNase activity assay: cell line RNA incubated with treated saliva, read on Agilent TapeStation; format: biochemical, human; set-up: key: Pass (green) indicating sufficient RNase inactivation; Partial Pass (yellow) indicating partial RNase inactivation; Fail (red) indicating incomplete RNase inactivation
Description: FIG. 27. Example of saliva RNase activity assays assayed on TapeStation High Sensitivity RNA ScreenTapes (5067; Agilent). Results from three independent assays are shown. Lanes 1-3 (left to right) are experimental controls including 500 μg RNA in RNase free water, untreated saliva without added cell line RNA, and untreated saliva incubated with cell line RNA. Lanes labeled “Incomplete RNase Inactivation” contain no ribosomal RNA bands, indicating RNase activity is present. Lanes labeled “Sufficient RNase Inactivation” contain sharp ribosomal bands (similar to RNA in water), indicating RNases have been inactivated. gDNA=genomic DNA.
To screen for chemical and protein-based reagents that inhibit saliva RNases, we developed an RNase activity assay in which purified cell line RNA was incubated for 30 min at 37° C. with saliva samples after treatment with potential reagents for RNase inhibition (FIG. 2.5.3). After incubation, RNA was purified and analyzed on an Agilent TapeStation. Sharpness of the eukaryotic ribosomal RNA bands (28S and 18S) were compared to determine RNase activity in the presence of various inhibitors. In addition, the Agilent TapeStation calculates an RNA Integrity Score (RIN) as a measure of RNA quality (RIN of 10-fully intact RNA, RIN of 1=fully degraded RNA), however contaminating nucleic acid (e.g., 16S and 23S rRNA from bacteria) interferes with this calculation.
To screen for chemical and protein-based reagents that inhibit saliva RNases, we developed an RNase activity assay in which purified cell line RNA was incubated for 30 min at 37° C. with saliva samples after treatment with potential reagents for RNase inhibition (FIG. 2.5.3). After incubation, RNA was purified and analyzed on an Agilent TapeStation. Sharpness of the eukaryotic ribosomal RNA bands (28S and 18S) were compared to determine RNase activity in the presence of various inhibitors. […]

| Molecule | Compatibility in RT-RPA, Result [1] | RNase activity in saliva samples ([2]; 4 U/μL added, five donor saliva samples) | Inhibition of RNase activity ([2]; lyophilized in amplification pad, rehydrated with saliva, four pads) | Inactivation of saliva RNases, Result ([3]; 4 U/μl) | Inactivation of saliva RNases, Result ([3]; 8 U/μl) | Inactivation of saliva RNases, Result ([3]; 50 μg/ml and 2.5 mg/ml) |
| --- | --- | --- | --- | --- | --- | --- |
| B1 | Pass | reduced the RNase activity in all five samples to negligible amounts | Nearly complete inhibition of RNase activity | Partial | Pass | – |
| B2 | – | – | – | – | – | Fail |

Reference: patent US20260199902A1, “SYSTEM AND APPARATUS FOR THE HAND-HELD AMPLIFICATION AND DETECTION OF NUCLEIC ACIDS” (Darwin Biosciences, Inc., priority 2022, published 2026)
